Tests used:
[1] = target: pick1_mouse Pick1 (UniProt Q62083)
[2] = target: afad_human AFDN (UniProt P55196)
Chain of UniProt P55196 (P55196 whole entry): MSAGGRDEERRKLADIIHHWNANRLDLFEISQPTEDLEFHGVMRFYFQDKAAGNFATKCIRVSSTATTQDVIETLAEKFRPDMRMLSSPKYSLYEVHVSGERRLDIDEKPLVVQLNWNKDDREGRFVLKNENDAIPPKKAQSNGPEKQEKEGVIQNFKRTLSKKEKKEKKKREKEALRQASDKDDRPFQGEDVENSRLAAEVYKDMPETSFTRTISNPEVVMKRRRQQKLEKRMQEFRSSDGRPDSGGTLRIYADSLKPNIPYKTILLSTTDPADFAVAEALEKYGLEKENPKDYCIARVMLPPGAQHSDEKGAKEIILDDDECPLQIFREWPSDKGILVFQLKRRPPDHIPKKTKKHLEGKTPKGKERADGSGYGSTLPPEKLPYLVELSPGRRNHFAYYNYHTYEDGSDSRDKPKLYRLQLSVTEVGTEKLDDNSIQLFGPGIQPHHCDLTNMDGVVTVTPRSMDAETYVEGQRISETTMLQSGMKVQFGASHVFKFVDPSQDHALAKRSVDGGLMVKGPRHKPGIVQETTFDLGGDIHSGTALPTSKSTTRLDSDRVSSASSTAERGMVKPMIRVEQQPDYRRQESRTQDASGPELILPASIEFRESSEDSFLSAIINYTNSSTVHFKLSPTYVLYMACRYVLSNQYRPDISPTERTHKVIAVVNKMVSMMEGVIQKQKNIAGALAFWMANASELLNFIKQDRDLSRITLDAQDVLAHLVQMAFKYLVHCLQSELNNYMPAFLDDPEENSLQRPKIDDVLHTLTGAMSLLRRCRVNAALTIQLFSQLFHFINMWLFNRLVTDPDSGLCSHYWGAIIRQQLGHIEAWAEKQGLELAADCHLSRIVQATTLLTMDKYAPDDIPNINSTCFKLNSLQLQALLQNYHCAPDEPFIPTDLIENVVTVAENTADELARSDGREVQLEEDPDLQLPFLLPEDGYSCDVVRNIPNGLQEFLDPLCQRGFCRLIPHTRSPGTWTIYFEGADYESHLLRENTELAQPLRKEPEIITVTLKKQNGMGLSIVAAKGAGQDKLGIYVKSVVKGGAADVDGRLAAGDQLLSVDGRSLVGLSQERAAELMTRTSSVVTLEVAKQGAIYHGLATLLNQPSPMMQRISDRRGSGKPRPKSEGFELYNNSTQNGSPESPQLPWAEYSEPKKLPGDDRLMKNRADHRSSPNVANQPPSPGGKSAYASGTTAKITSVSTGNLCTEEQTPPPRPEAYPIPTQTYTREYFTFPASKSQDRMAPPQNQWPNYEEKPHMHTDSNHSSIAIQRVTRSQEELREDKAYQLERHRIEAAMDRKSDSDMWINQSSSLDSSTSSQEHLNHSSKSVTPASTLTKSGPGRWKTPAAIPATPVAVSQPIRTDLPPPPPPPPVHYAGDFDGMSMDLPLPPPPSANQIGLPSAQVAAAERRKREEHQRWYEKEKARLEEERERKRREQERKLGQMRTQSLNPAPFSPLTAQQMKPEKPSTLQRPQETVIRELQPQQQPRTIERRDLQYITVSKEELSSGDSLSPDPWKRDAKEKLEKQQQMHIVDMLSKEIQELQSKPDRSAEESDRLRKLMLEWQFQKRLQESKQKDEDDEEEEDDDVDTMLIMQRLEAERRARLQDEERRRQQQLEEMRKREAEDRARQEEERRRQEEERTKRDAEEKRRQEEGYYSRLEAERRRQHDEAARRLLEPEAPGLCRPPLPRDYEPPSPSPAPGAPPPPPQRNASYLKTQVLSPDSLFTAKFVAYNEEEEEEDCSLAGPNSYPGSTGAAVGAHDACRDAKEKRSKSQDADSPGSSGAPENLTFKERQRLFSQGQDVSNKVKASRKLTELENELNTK

Chain of UniProt Q62083 (Q62083 whole entry): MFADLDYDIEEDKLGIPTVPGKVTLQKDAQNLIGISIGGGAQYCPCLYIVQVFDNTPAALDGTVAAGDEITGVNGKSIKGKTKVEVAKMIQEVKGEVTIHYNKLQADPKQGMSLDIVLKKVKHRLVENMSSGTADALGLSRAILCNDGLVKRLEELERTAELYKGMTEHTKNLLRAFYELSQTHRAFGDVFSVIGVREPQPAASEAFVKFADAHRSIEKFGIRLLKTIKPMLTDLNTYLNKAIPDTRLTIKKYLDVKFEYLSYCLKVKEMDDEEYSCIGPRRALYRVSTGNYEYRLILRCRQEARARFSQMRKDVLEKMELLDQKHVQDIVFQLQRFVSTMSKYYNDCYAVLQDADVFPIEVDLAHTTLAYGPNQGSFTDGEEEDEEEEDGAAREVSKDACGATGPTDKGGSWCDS

| Substance | effect of a mutation on the interaction [1] | effect of a mutation on the interaction [2] |
| --- | --- | --- |
| Nectin-3 (Homo sapiens) (from UniProt Q9NQS3) E546G | disrupting interaction |  |
| Nectin-3 (Homo sapiens) (from UniProt Q9NQS3) V549A | decreasing interaction | disrupting interaction |
| Nectin-3 (Homo sapiens) (from UniProt Q9NQS3) Y548A |  | disrupting interaction |

Reference: IntAct's records for PubMed 15811349
